Test in all cases: ELISA
A general note: An ELISA detects its analyte on a solid surface through an enzyme-linked reagent.

Test [1] has as its target T1, Biotinylated human α2-antiplasmin (Asn-α2-AP form) (human, UniProt P08697 40-491, biotin (EZ-Link Sulfo-NHS-Biotinylation Kit), sites not stated).
T1 sequence (looked up): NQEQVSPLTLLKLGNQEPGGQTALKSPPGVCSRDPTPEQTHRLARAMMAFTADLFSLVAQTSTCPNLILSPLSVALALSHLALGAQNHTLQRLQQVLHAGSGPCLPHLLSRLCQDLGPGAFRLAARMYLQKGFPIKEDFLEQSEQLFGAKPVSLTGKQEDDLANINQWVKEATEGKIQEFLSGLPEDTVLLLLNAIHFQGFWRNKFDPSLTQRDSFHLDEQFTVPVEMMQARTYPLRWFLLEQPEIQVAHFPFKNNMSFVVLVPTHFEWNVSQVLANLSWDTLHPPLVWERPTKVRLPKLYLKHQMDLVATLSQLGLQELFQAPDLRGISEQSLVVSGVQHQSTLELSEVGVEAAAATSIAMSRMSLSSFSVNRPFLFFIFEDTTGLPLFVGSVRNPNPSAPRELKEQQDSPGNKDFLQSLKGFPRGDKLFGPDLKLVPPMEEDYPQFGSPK

The target in test [2] is T1, Biotinylated human α2-antiplasmin …. This is another data set of the same source.
The target is the same in test [3]. The source holds these as a separate data set.
For test [4] the target is unchanged. This is another data set of the same source.

One may read the Kd as a measure of binding affinity in units of concentration. A lower Kd goes with tighter binding.

Like-named read-outs stand apart in the source and are kept apart here.

B1: Fibrin-derived D-D fragment (domain or fragment)
chain 1: VSEDLRSRIEVLKRKVIEKVQHIQLLQKNVRAQLVDMKRLEVDIDIKIRSCRGSCSRALAREVDLKDYEDQQKQLEQVIAKDLLPSR
chain 2: DNENVVNEYSSELEKHQLYIDETVNSNIPTNLRVLRSILENLRSKIQKLESDVSAQMEYCRTPCTVSCNIPVVSGKECEEIIRKGGETSEMYLIQPDSSVKPYRVYCDMNTENGGWTVIQNRQDGSVDFGRKWDPYKQGFGNVATNTDGKNYCGLPGEYWLGNDKISQLTRMGPTELLIEMEDWKGDKVKAHYGGFTVQNEANKYQISVNKYRGTAGNALMDGASQLMGENRTMTIHNGMFFSTYDRDNDGWLTSDPRKQCSKEDGGGWWYNRCHAANPNGRYYWGGQYTWDMAKHGTDDGVVWMNWKGSWYSMRKMSMKIRPFFPQQ
chain 3: KMLEEIMKYEASILTHDSSIRYLQEIYNSNNQKIVNLKEKVAQLEAQCQEPCKDTVQIHDITGKDCQDIANKGAKQSGLYFIKPLKANQQFLVYCEIDGSGNGWTVFQKRLDGSVDFKKNWIQYKEGFGHLSPTGTTEFWLGNEKIHLISTQSAIPYALRVELEDWNGRTSTADYAMFKVGPEADKYRLTYAYFAGGDAGDAFDGFDFGDDPSDKFFTSHNGMQFSTWDNDNDKFEGNCAEQDGSGWWMNKCHAGHLNGVYYQGGTYSKASTPNGYDNGIIWATWKTRWYSMKKTTMKIIPFNRLTIGEGQQHHLGGAK
modifications: covalent γ-γ cross-linking between the D regions
B1: the Kd was 94 nM in test [1], 105 nM in test [2], 5.5 nM in test [3] and 98 nM in test [4].

Values taken from paper PMC2932838 (Biochemistry, 2010).
